# Experimental data: patent US20120052092A1
# Tests used:
# [1] = biological target: fHbp Variant 2 (Neisseria meningitidis); test: SPR
# [2] = biological target: fHbp Variant 3 (Neisseria meningitidis); test: SPR
# [3] = biological target: factor H binding protein (wild type, variant 1) (UniProt E6MV22); test: SPR
# [4] = biological target: factor H binding protein (wild type, variant 1) (UniProt E6MV22); test: SPR; sensorgram
# Sequence of fH678 (P08603 321-509): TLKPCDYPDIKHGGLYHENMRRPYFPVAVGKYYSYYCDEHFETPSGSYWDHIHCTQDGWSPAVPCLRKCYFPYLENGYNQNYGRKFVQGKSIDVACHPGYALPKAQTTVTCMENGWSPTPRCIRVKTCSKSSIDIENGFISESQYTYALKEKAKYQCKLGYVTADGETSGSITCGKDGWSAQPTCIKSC
Substance,Kd [1] [nM],Kd [2] [nM],Kd [3] [nM],Kd [4] [nM]
FH67 N339E M340S,44,165,–,–
fH678 (from UniProt P08603 321-509),–,–,5,4.69
